{"source": "patent US20090298178A1", "about": "“GROWTH FACTORS FOR PRODUCTION OF DEFINITIVE ENDODERM” (priority 2008, published 2009)", "key": {"[1]": {"system": "hES cells (CyT49; passage 35)", "test": "Differentiation of hES cells to definitive endoderm with activin A plus Wnt3a or GSK3 inhibitors, real-time quantitative PCR at 48 hours (Example 4)", "format": "cell-based, human", "details": "with 100 ng/mL activin A; Wnt3a 25, 50 or 75 ng/mL; GSK3 inhibitor No.15 at 10 nM; FIG. 6A-B", "procedure": "Undifferentiated hES cells (CyT49; passage 35) were maintained substantially as described in Example 1 above. Ten hES cell culture plates were then differentiated in RPMI (Mediatech) supplemented with Glutamax, penicillin/streptomycin, and varying concentrations of defined FBS (HyClone). FBS concentrations were 0% for the first 24 h and 0.2% for the second 24 h. Additionally, 0.1% BSA (Invitrogen/Gibco) was added on the first day only. All plates received 100 ng/mL activin A for both days. […] Replicate samples were collected from each culture condition at 48 hours after differentiation commenced and analyzed for relative gene expression using real-time quantitative PCR."}, "[2]": {"system": "hES cells (CyT49; passage 35)", "test": "Further differentiation to pancreatic endoderm and endocrine cells, real-time PCR at 10 days (Example 4)", "format": "cell-based, human", "details": "definitive endoderm produced using Wnt3a at 50 or 75 ng/ml or GXV at 10 nM, FIG. 7", "procedure": "Human ES cell cultures were maintained and differentiated substantially as described above in Example 1, and further differentiated to foregut endoderm (stage 2) and then onto pancreatic endoderm and pancreatic endocrine cells (stages 3 and 4). After 48 hours of differentiation to definitive endoderm (stage 1) the cells were briefly washed in PBS+/+ and then further differentiated in RPMI supplemented with 0.2% FBS, Insulin-Transferrin-Selenium (1:1000), Glutamax, penicillin/streptomycin, and 25 ng/mL KGF (R&D Systems) for 3 days. On the first day of stage 2, the culture also received TGF-beta inhibitor No. 4 (3-(6-Methylpyridin-2-yl)-4-(4-quinolyl)-1-phenylthiocarbamoyl-1H-pyrazole) at 2.5 uM (EMD Bioscience). After three days in stage 2 the cells were then differentiated for one day in DMEM with B27 supplement (1:100) containing all-trans retinoic acid (RA) at 0.2 uM and KAAD-cyclopamine at 0.25 uM. Following the single day of retinoid exposure, the cells were cultured in DMEM with B27 (1:100) containing noggin at 40 ng/ml. […]\nHowever, in this instance, the stage 4 noggin treatment lasted for 4 days, as compared to 3 days in Example 2, and replicate samples were taken for real-time PCR analysis at a total of 10 days of differentiation, as compared to 9 days in Example 2."}}}
{"molecule": "Wnt3a: Wnt protein (R&D Systems) activating the Wnt signaling pathway (protein, UniProt P56704 19-352, looked up) Protein Wnt-3a: SYPIWWSLAVGPQYSSLGSQPILCASIPGLVPKQLRFCRNYVEIMPSVAEGIKIGIQECQHQFRGRRWNCTTVHDSLAIFGPVLDKATRESAFVHAIASAGVAFAVTRSCAEGTAAICGCSSRHQGSPGKGWKWGGCSEDIEFGGMVSREFADARENRPDARSAMNRHNNEAGRQAIASHMHLKCKCHGLSGSCEVKTCWWSQPDFRAIGDFLKDKYDSASEMVVEKHRESRGWVETLRPRYTYFKVPTERDLVYYEASPNFCEPNPETGSFGTRDRTCNVSSHGIDGCDLLCCGRGHNARAERRREKCRCVFHWCCYVSCQECTRVYDVHTCK", "values": [{"measurement": "expression levels of SOX17 and FOXA2 at 48 hours of differentiation as compared to the other GSK inhibitors", "setting": "[1]", "value": "substantially higher"}, {"measurement": "abundance of pancreatic endoderm and endocrine cell types (PDX1, PTF1A, NKX6-1 and NKX2-2 induction)", "setting": "[2]", "value": "much greater abundance"}]}
